Results from paper PMC2191588.

Target: TCR beta proteins on normal splenic CD4+ T cells (mouse (endogenous in splenic CD4+ T cells))
Assay: flow cytometry on cells

## CD3 epsilon (from UniProt P22646 22-189) (natural protein)
  stoichiometry N (CD3e per TCR beta): 2
